Experimental data from patent US20180079804A1.

Assays:
[1] = molecular target: T1, Tau(pS422) fragment SEQ ID NO: 03 (human); test: ELISA
T1 sequence (peptide, phosphoserine at position 7 (position 422 of SEQ ID NO, 01)): SIDMVDXPQLATLAD

[2] = molecular target: T1, Tau(pS422) fragment SEQ ID NO: 03 (human); test: SPR capture assay (Example 10), 25 C

| Binder | EC50 [1] | Kd [2] | koff [2] | kon [2] |
| --- | --- | --- | --- | --- |
| VH76A6/VL145B12 (antibody, V domains shown) VH: EVQVLESGGGLVQPGGSLRLSCAVSGFSLSNSAINWVRQAPGKGLEWVGYIAVSGNTYYASWAKGRFTISRDNSKNTVYLQMNSLRAEDTAVYYCGKSNIWGQGTLVTVSS VL: AQVMTQSPSSLSASVGDRVTITCRSSQSVRSNKLAWFQQKPGQPPKRLIYAASNLDFGVPSRFSGSGSGTEFTLTISSLQPEDFATYYCLGYFDSSADIVAFGGGTKVEIK | 0.0403 µg/mL | 2.61 nM | 0.000628 s⁻¹ | 240000 M⁻¹ s⁻¹ |
| VH00/VL00 (antibody, V domains shown) VH: QSVEESGGRLVTPGTPLTLTCTVSGFSLSSNAINWVRQAPGKGLEWIGYIAVSGNTYYASWAKGRFTISKASTTVDLKMTSPTAEDTGTYFCGKSNIWGPGTLVTVSL VL: AQVLTQTTSPVSAAVGSTVTISCQSSQSVRTNKLAWFQQKPGQPPKRLIYSASTLDFGVPSRFSASGSGTQFTLTISDVQCDDAATYYCLGYFDCSIADCVAFGGGTEVVVK | 0.04 µg/mL | 1.96 nM | 0.000265 s⁻¹ | 135000 M⁻¹ s⁻¹ |
